Experimental data taken from the supplement of paper PMC9170038.

System: MS2 coat protein
Assay: apparent KD of MS2 coat protein; higher = weaker reporter binding
Conditions: Eterna round: R107
Method in brief: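 Designed RNA switches were made by on-chip transcription from Illumina sequencing clusters and then titrated with SNAP-549-labelled MS2 coat protein. Twofold steps ran from 0.7 or 1.5 nM to 3 µM, each lasting 0.8–1.5 h early and 10–20 min late, in 100 mM Tris-HCl pH 7.5, 80 mM KCl, 4 mM MgCl2, without or with constant ligand. Apparent KD is the per-design median of normalised cluster binding-curve fits.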

[1] = input ligand: theophylline 20 uM
[2] = input ligand: theophylline 2 mM
[3] = input ligand: tryptophan 2.4 mM

| Sequence | apparent KD of MS2 coat protein (input ligand: arginine 13.2 mM) [nM] | apparent KD of MS2 coat protein (input ligand: none) [nM] | apparent KD of MS2 coat protein [1] [nM] | apparent KD of MS2 coat protein [2] [nM] | apparent KD of MS2 coat protein [3] [nM] |
| --- | --- | --- | --- | --- | --- |
| GUAGCGACGGCGGCCGCCACUCGCACGUGAGGGUAGACCAACCUUCACAUGAGGAUCACCCAUGUGAGGACCGGGCUGUCGCUAC [#15 Exclusion Tryptophan B] | 17 | 23.8 | 30.4 | 25.4 | 46.4 |
| UUAUUUAUAAUUGAUACCAGUUUAAUGGCCGCAAAUCCUGACAUGAGGAUCACCCAUGUAAGCCCUUGGCAGCGGUUAUGGGUUU [XTheo B #25] | 22.8 |  | 26.4 |  | 22.1 |
| CUGCCAUGCAGAGAUACCAGUGCGCUCAGCACAUGAGGAUCACCCAUGUCGGCUGCCGAUCACCCUUGGCAGCUCUGCAUGGCAG [?@#$_] | 12 |  | 13 |  | 11.3 |
| ACAUGAGGAUCACCCAUGUGUGUAAGUCCUCGAGGACCGGUACGGCCGCCACUCGAACGAGUGAAGCCUGAUACUAAGUAUCAGG [SS Trp A s5] | 99.6 | 15.4 | 20.7 | 14.4 | 18.7 |
| ACAUGAGGAUCCGAUACCAGCCACAUGAGGAUCACCCAUGUAGUACAUGAGGAUCACCCAGGCCCUUGGCAGCGGACAUGAGGAU [Exclusion - Theophylline B] | 95.9 |  | 331 |  | 149 |
| UAAUGUGAGAGAAGGAGCGGAGGUCUCGUUACAACAUGAGGAUCACCCAUGUAACGUACCGUCCAGGUAGGUCGCUCUCGGGCGC [lvacmullin] | 17.4 | 13.2 | 24.4 | 17.2 | 15.2 |
| GGUCUCUGGAGCGAUACCAGCUUAAUCGUACUGGCCAGGUACAUGAGGAUCACCCAUGUAAGCCCUUGGCAGCGCUCCAGAGACC [#1 Exclusion - Theophylline B Attempt #11 (HarryS)] | 6.02 | 12.9 | 16.4 | 14.4 | 10.5 |
| UGCCGAGACGUGGAUUACCCGUGUACCGAAGGAGCGCCCGAAAGGGCAGGUAGGUCGCGGAGGACAUGAGGAUCACCCAUGUUUA | 202 | 56.3 | 55 | 79.8 | 55.7 |
| UGACAUUGCUCAGAUACCAGACGUGAGGAUCACCCACGUGCCAACAAGUACAAAAUAAAUGUCCCUUGGCAGCUGAGCAAUGUCU [TheoBX 26 #MS2Left #AlternativeMS2 #Theo22] | 9.64 | 9.95 | 12.7 | 14.1 | 10.9 |
| GGGCAAGAGGGAAGGAGCGUCAGCUGAGUAACAUGAGGAUCACCCAUGUAGCACAUAGUGUGACAGGUAGGUCGCCCUCUGCCCU [SS-ArgB6] | 12.6 | 8.97 | 10.4 | 8.42 | 12.5 |
| AUCGUACCUGAGGAUACCAGCAUGUGAUCAUAACAUGAGGAUCACCCAUGUAAUCAGUGAUGCCCUUGGCAGCUUGGUCGGUACA [Same State - Theophylline B (Freestyle 10)] | 34.8 |  | 74.3 |  | 44.2 |
| AGAUUCGACACGGCCGCCACUUGUGGUGGAUUAUCCUGUGUCGAACAUGAGGAUCACCCAUGUACAAGGACCGGGUGUUGAGUCU [XTryp B #20] | 60.2 |  | 151 | 136 |  |
| ACAUGAGGAUCACCCAUGUAUGACUAUCCUCGAGGACCGGUACGGCCGCCACUCGAACGAGUGGCUCGCGAGUGCGCACUUGCGA [5' end] | 16.7 | 13.2 | 16.7 | 12.7 | 11.9 |
| ACAUGAGGAUCACCCAUGUGAAGCAGGGUACGAGGACCGGUACGGCCGCCACUCGAGCAUUAUAACGAGUGAAUGGCAACGAUGU [whbob_Ex_trypto A_2s16] | 11.7 | 12.4 | 19 | 17.4 | 12.8 |
| AAACAUGAGGAUCACCCAUGUAUACUUAGACGAGGACCGGUACGGCCGCCACUCGAACUUCAAGAUUUGGCGGAUAAUGUAUGUA [JR_Nu22_ExcTryptoA_Sub023] | 9.74 | 10.9 | 16.1 | 11.9 | 11.9 |
| ACUUCAUGAGGUGAUACCAGCCAAUGACAUGAGGACAUGAGGAUCACCCAUGUUUAUGUAGGCCCUUGGCAGCAUUGUAACAUGA [Same State Theophylline B 4] | 101 |  | 126 |  | 28.4 |
| ACAUGAGGGCGAAGGAGCGCGAACAUGAGGAUCACCCAUGUCUAUAUCCGUCCGCAUGUAUCGCAGGUAGGUCGCGCUGUUACUU [#13 Exclusion - Arginine B] | 8.99 | 8.6 | 11.4 | 8.5 | 8.52 |
| AAAAUAAAAUAAAAGGUGGAAAUAAGGCGGCGAGGACCGGUACGGCCGCCACUCGCGUACAUGAGGAUCACCCAUGUCUGAAAAU [Same State - Tryptophan A (Freestyle 1)] | 20.3 |  | 28.2 | 26.6 |  |
| GAUGAACUAUAUGAUACCAGACAACAUGAGGAUCACCCAUGUGAUAGUCGUCCUCUGCCUGUCCCUUGGCAGCGUAUAGUUUAUC [XTheo B #19] | 30.7 |  | 74.7 |  | 21.2 |
